Earlier results on 1 substance are cited in PMC4115291 (Nature communications, 2014).

The subject of the data set is mice.

For the substance β-Diguetoxin-Dc1a, the “effect in mice, injected intracerebroventricularly (in words)” value (1.0 mg/kg intracerebroventricularly) is “no effect”. Further, the “effect in mice, injected intraperitoneally (in words)” value (4.1 mg/kg intraperitoneally) is listed as “no effect”.
